The source of these data is the RNAGym collection of RNA variant scans (doi:10.1073/pnas.2313332121).

B1: TPR t1 (parent)
chain: GACCAAUCUGCCCUCAGAGCUCGAGAACAUCUUCGGAUGCAGAGGAGGCAGGCUUCGGUGGCGCGAUAGCGCCAACGUCCUCAACCUCCAAUGCAUCCCACCACAUGAUGAUGCCUGAAGAGCCUUGGUUUUUUG

Variants of B1 are the subject of the series. Briefly: polymerase ribozyme fitness, log enrichment relative to wild type (log ratio); higher = more active; in vitro selection for triplet polymerase activity. In short, it runs like this:
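PCR was used to build mutant libraries for each subunit of a heterodimeric triplet polymerase ribozyme, which were then transcribed. A single in vitro selection round, in triplicate, used a frozen incubation at −7 °C and recovered extended constructs by gel excision, streptavidin beads and RT-PCR. Fitness is the logarithm of genotype enrichment relative to wild-type enrichment, averaged over replicates with inverse-variance weights. The logarithm is base 2, and after Illumina sequencing only genotypes with ≥10 input reads and ≥1 read per output were kept.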
Consider G47C C53U, for which the “polymerase ribozyme fitness (log ratio)” value was -0.348.
On to G47A C72A, for which the “polymerase ribozyme fitness (log ratio)” value is -0.266.
On to G47A C72U, for which the “polymerase ribozyme fitness (log ratio)” value is -0.456.
In the case of A46U U96A it was -1.81.
Consider A46G C123U, for which the “polymerase ribozyme fitness (log ratio)” value came out at 0.893.
In the case of G48U A95U A105U U125A it was -4.37; in that of A46G C73G C82U G93A C104A, -4.85; in that of G47U G52A C73A C86A, -0.962.
For G48U C53U U92C A100U C101U C124A U131G, the “polymerase ribozyme fitness (log ratio)” value was -2.57.
With A46G C70A, the “polymerase ribozyme fitness (log ratio)” value is -1.26.
In the case of A46G C70G it was -4.8.
For the variant G47A G69A G77C C99U C114G, the “polymerase ribozyme fitness (log ratio)” value was -6.85.
Turning to G48A C72A U116C, the “polymerase ribozyme fitness (log ratio)” value was -1.09.
Take A46U G77C C115U G122A U130C: the “polymerase ribozyme fitness (log ratio)” value was -4.76.
Consider A46U C79U C82U G110U G135A, for which the “polymerase ribozyme fitness (log ratio)” value is -3.2.
In the case of A46C G57C it was -0.329; in that of A46C G57U, -0.681.
Take G47U A66U U125G: the “polymerase ribozyme fitness (log ratio)” value is -3.75.
In the case of A46U G93A A119G U132A it was -1.15; in that of A46U C88A, -1.18; in that of G47C C102U U112C, -1.55.
For A46U G122A, the “polymerase ribozyme fitness (log ratio)” value was -2.16.
Turning to A46G C64U G110U C123G, the “polymerase ribozyme fitness (log ratio)” value is -1.18.
In the case of G48A C88G it was -0.075; in that of G48C C56U G77A G110A, -2.29.
With A46U C97A C99G G117C, the “polymerase ribozyme fitness (log ratio)” value is -7.9.
As for A46U C101G, the “polymerase ribozyme fitness (log ratio)” value is -3.57.
On to A46U C101U, for which the “polymerase ribozyme fitness (log ratio)” value is -0.308.
In the case of G47A G51U C72U U78C it was -5; in that of G47U G120C, -0.748; in that of G47C C56A G110U, -5.35.
As for G47U A91C G113A U130A, the “polymerase ribozyme fitness (log ratio)” value was -3.79.
On to G47U A68G C104U, for which the “polymerase ribozyme fitness (log ratio)” value is -4.55.
In the case of A46U G60C it was -0.894; in that of G47C G61A, -0.75; in that of A46U G63A, -1.91.
For G48U C56A, the “polymerase ribozyme fitness (log ratio)” value was -1.75.
Take G48U C56U: the “polymerase ribozyme fitness (log ratio)” value is -0.606.
With G48C A91C U92G G120A C124U U130C, the “polymerase ribozyme fitness (log ratio)” value was -1.63.
Turning to G47U A118G U130G, the “polymerase ribozyme fitness (log ratio)” value is -3.01.
Take G47C A50C C72U C85G C88G C102U C123U: the “polymerase ribozyme fitness (log ratio)” value is -7.42.
As for G48A A50U U78A A119G G120C, the “polymerase ribozyme fitness (log ratio)” value was 0.486.
Turning to G48A U87A U96A, the “polymerase ribozyme fitness (log ratio)” value was -1.88.
In the case of A46U C82A it was -1.42; in that of G48C G61C, -2.06; in that of G48A G60A U78C U109A G110U, -4.9.
On to G48A C86A, for which the “polymerase ribozyme fitness (log ratio)” value was -0.909.
For the variant G48A C86U, the “polymerase ribozyme fitness (log ratio)” value is -0.5.
In the case of G47A G110A it was -1.67; in that of G47U G61U, -2.36.
As for G47U G61C, the “polymerase ribozyme fitness (log ratio)” value was -2.36.
Consider G47U U96C A118G, for which the “polymerase ribozyme fitness (log ratio)” value is -1.69.
As for G47A G58U G110U G120A, the “polymerase ribozyme fitness (log ratio)” value was -3.22.
In the case of G47C A50U U81C C114U it was -4.15; in that of G48A C62A, -2.76; in that of G48C C49U U59A, -1.34.
G47U C104A U129A: the “polymerase ribozyme fitness (log ratio)” value is -5.96.
In the case of G48C C62A G63U A121G it was -4.74; in that of G48C C101A G117A, -2.54; in that of G48A C56U C70A G93A, -5.28.
In the case of G47U U54C C70U U96C U116C U129C it was -4.8; in that of G48A C56U G93C C94G, -5.23; in that of A46U G120U, -0.451.
Consider G48C C49A C88U A95G, for which the “polymerase ribozyme fitness (log ratio)” value was -0.72.
Turning to G48A C89U C124U, the “polymerase ribozyme fitness (log ratio)” value worked out at 0.551.
G48A A50G G69U C76A U78C: the “polymerase ribozyme fitness (log ratio)” value is -2.05.
A46U G117C: the “polymerase ribozyme fitness (log ratio)” value is -1.89.
In the case of A46G C98U G117C it was -5.69; in that of G47C U55C C56A G69U C86U C123A U132A, -1.54.
In the case of G48A G61U U78C, the “polymerase ribozyme fitness (log ratio)” value was -0.213.
With G47C A84C, the “polymerase ribozyme fitness (log ratio)” value was -0.862.
In the case of G47U C56U C72U U116C it was -3.11.
Regarding A46C U87A G93C C115A U116C A119C, the “polymerase ribozyme fitness (log ratio)” value was -3.74.
With G47A A83U, the “polymerase ribozyme fitness (log ratio)” value was -0.645.
Take G48A C85U A105U: the “polymerase ribozyme fitness (log ratio)” value was -2.08.
For G47U G58U C88U, the “polymerase ribozyme fitness (log ratio)” value was -2.22.
A46U G69U A91U A103G U106A C114U U131G: the “polymerase ribozyme fitness (log ratio)” value is -5.56.
In the case of A46G C97U it was -1.05.
Turning to G47C C115A, the “polymerase ribozyme fitness (log ratio)” value is -2.22.
In the case of A46U A66C it was -2.07; in that of G48A C73A, -0.973; in that of G47A G117C, -4.01.
On to G47C A100U, for which the “polymerase ribozyme fitness (log ratio)” value is -2.4.
